In patent US20260001928A1 (CORTERIA PHARMACEUTICALS, priority 2022, published 2026):
*1 amine or outer side, *2 acyl side, *3 side chain or, on linkers, in order; H or OH if unused. Where no end group is shown, it is not given here. Side-chain parts run from the residue outwards. [ ]: non-standard residue; d: D form. The star is where a group is joined. C20 diacid = O=C(O)CCCCCCCCCCCCCCCCCCC(=O)*; C16 diacid = O=C(O)CCCCCCCCCCCCCCC(=O)*; γGlu = O=C(O)[C@H](CCC(=O)[*:2])N[*:1]; NMeI = CC[C@H](C)[C@H](NC)C(=O)O; Aib = CC(C)(N)C(=O)O

T1: CRF1R receptor (UniProt P34998 24-415, limits assumed)
T1 sequence (looked up): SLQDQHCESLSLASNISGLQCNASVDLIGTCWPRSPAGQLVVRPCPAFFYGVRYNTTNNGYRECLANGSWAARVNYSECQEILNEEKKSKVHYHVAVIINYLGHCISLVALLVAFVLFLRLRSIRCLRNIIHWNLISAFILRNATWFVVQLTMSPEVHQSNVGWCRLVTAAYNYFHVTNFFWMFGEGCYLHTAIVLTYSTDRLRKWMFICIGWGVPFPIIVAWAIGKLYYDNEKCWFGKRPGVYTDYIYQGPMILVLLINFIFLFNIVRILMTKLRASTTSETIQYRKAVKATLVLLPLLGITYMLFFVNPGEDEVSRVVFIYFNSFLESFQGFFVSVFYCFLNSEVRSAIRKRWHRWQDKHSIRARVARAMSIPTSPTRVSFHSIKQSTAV


Legend:
[1] = target: human corticotropin-releasing factor 2a (CRF2a receptor) (human), Q13324; assay: cell-based or functional assay
human corticotropin-releasing factor 2a (CRF2a receptor) (human), Q13324, sequence (Q13324 20-411): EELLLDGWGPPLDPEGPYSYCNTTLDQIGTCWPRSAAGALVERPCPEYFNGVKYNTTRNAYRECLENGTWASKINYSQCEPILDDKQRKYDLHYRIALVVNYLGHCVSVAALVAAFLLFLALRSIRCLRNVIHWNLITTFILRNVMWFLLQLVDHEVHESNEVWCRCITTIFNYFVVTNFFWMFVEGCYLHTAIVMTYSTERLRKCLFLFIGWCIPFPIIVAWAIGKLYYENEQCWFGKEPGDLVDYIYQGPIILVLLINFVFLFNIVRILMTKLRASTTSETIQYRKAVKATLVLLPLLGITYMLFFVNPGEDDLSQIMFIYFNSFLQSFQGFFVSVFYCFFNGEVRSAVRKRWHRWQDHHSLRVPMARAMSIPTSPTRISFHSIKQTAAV

[2] = target: T1, CRF1R receptor; assay: cell-based or functional assay

Binder	EC50 [nM] (cAMP) [1]	Emax (% I) [2] [%]	EC50 [2] [nM]
[NMeI]VLSLD[dV]PIKLK([γGlu-C20 diacid])KILLEQEKQK[Aib]QREQAETN[Aib]QILAQV-NH2 (N-terminus assumed; SMILES CC[C@H](C)[C@H](NC)C(=O)N[C@H](C(=O)N[C@@H](CC(C)C)C(=O)N[C@@H](CO)C(=O)N[C@@H](CC(C)C)C(=O)N[C@@H](CC(=O)O)C(=O)N[C@@H](C(=O)N1CCC[C@H]1C(=O)N[C@H](C(=O)N[C@@H](CCCCN)C(=O)N[C@@H](CC(C)C)C(=O)N[C@@H](CCCCNC(=O)CC[C@H](NC(=O)CCCCCCCCCCCCCCCCCCC(=O)O)C(=O)O)C(=O)N[C@@H](CCCCN)C(=O)N[C@H](C(=O)N[C@@H](CC(C)C)C(=O)N[C@@H](CC(C)C)C(=O)N[C@@H](CCC(=O)O)C(=O)N[C@@H](CCC(N)=O)C(=O)N[C@@H](CCC(=O)O)C(=O)N[C@@H](CCCCN)C(=O)N[C@@H](CCC(N)=O)C(=O)N[C@@H](CCCCN)C(=O)NC(C)(C)C(=O)N[C@@H](CCC(N)=O)C(=O)N[C@@H](CCCNC(=N)N)C(=O)N[C@@H](CCC(=O)O)C(=O)N[C@@H](CCC(N)=O)C(=O)N[C@@H](C)C(=O)N[C@@H](CCC(=O)O)C(=O)N[C@H](C(=O)N[C@@H](CC(N)=O)C(=O)NC(C)(C)C(=O)N[C@@H](CCC(N)=O)C(=O)N[C@H](C(=O)N[C@@H](CC(C)C)C(=O)N[C@@H](C)C(=O)N[C@@H](CCC(N)=O)C(=O)N[C@H](C(N)=O)C(C)C)[C@@H](C)CC)[C@@H](C)O)[C@@H](C)CC)[C@@H](C)CC)C(C)C)C(C)C) [SEQ ID NO 215]	0.12	19	
[NMeI]VLSLD[dV]PIKLK([γGlu-C20 diacid])KILLEQEAQKKQREQAETN[Aib]QILAQV-NH2 (N-terminus assumed; SMILES CC[C@H](C)[C@H](NC)C(=O)N[C@H](C(=O)N[C@@H](CC(C)C)C(=O)N[C@@H](CO)C(=O)N[C@@H](CC(C)C)C(=O)N[C@@H](CC(=O)O)C(=O)N[C@@H](C(=O)N1CCC[C@H]1C(=O)N[C@H](C(=O)N[C@@H](CCCCN)C(=O)N[C@@H](CC(C)C)C(=O)N[C@@H](CCCCNC(=O)CC[C@H](NC(=O)CCCCCCCCCCCCCCCCCCC(=O)O)C(=O)O)C(=O)N[C@@H](CCCCN)C(=O)N[C@H](C(=O)N[C@@H](CC(C)C)C(=O)N[C@@H](CC(C)C)C(=O)N[C@@H](CCC(=O)O)C(=O)N[C@@H](CCC(N)=O)C(=O)N[C@@H](CCC(=O)O)C(=O)N[C@@H](C)C(=O)N[C@@H](CCC(N)=O)C(=O)N[C@@H](CCCCN)C(=O)N[C@@H](CCCCN)C(=O)N[C@@H](CCC(N)=O)C(=O)N[C@@H](CCCNC(=N)N)C(=O)N[C@@H](CCC(=O)O)C(=O)N[C@@H](CCC(N)=O)C(=O)N[C@@H](C)C(=O)N[C@@H](CCC(=O)O)C(=O)N[C@H](C(=O)N[C@@H](CC(N)=O)C(=O)NC(C)(C)C(=O)N[C@@H](CCC(N)=O)C(=O)N[C@H](C(=O)N[C@@H](CC(C)C)C(=O)N[C@@H](C)C(=O)N[C@@H](CCC(N)=O)C(=O)N[C@H](C(N)=O)C(C)C)[C@@H](C)CC)[C@@H](C)O)[C@@H](C)CC)[C@@H](C)CC)C(C)C)C(C)C) [SEQ ID NO 216]	0.05	61	80.3
[NMeI]VLSLD[dV]PIKLK([γGlu-C20 diacid])KILLEQEKQKEQREQAETN[Aib]QILAQV-NH2 (N-terminus assumed; SMILES CC[C@H](C)[C@H](NC)C(=O)N[C@H](C(=O)N[C@@H](CC(C)C)C(=O)N[C@@H](CO)C(=O)N[C@@H](CC(C)C)C(=O)N[C@@H](CC(=O)O)C(=O)N[C@@H](C(=O)N1CCC[C@H]1C(=O)N[C@H](C(=O)N[C@@H](CCCCN)C(=O)N[C@@H](CC(C)C)C(=O)N[C@@H](CCCCNC(=O)CC[C@H](NC(=O)CCCCCCCCCCCCCCCCCCC(=O)O)C(=O)O)C(=O)N[C@@H](CCCCN)C(=O)N[C@H](C(=O)N[C@@H](CC(C)C)C(=O)N[C@@H](CC(C)C)C(=O)N[C@@H](CCC(=O)O)C(=O)N[C@@H](CCC(N)=O)C(=O)N[C@@H](CCC(=O)O)C(=O)N[C@@H](CCCCN)C(=O)N[C@@H](CCC(N)=O)C(=O)N[C@@H](CCCCN)C(=O)N[C@@H](CCC(=O)O)C(=O)N[C@@H](CCC(N)=O)C(=O)N[C@@H](CCCNC(=N)N)C(=O)N[C@@H](CCC(=O)O)C(=O)N[C@@H](CCC(N)=O)C(=O)N[C@@H](C)C(=O)N[C@@H](CCC(=O)O)C(=O)N[C@H](C(=O)N[C@@H](CC(N)=O)C(=O)NC(C)(C)C(=O)N[C@@H](CCC(N)=O)C(=O)N[C@H](C(=O)N[C@@H](CC(C)C)C(=O)N[C@@H](C)C(=O)N[C@@H](CCC(N)=O)C(=O)N[C@H](C(N)=O)C(C)C)[C@@H](C)CC)[C@@H](C)O)[C@@H](C)CC)[C@@H](C)CC)C(C)C)C(C)C) [SEQ ID NO 218]	0.11	24	
Ac-IVLSLD[dV]PIKLK([γGlu-C20 diacid])KILLEQEKQKEQREQAETN[Aib]QILAQV-NH2 (SMILES CC[C@H](C)[C@H](NC(C)=O)C(=O)N[C@H](C(=O)N[C@@H](CC(C)C)C(=O)N[C@@H](CO)C(=O)N[C@@H](CC(C)C)C(=O)N[C@@H](CC(=O)O)C(=O)N[C@@H](C(=O)N1CCC[C@H]1C(=O)N[C@H](C(=O)N[C@@H](CCCCN)C(=O)N[C@@H](CC(C)C)C(=O)N[C@@H](CCCCNC(=O)CC[C@H](NC(=O)CCCCCCCCCCCCCCCCCCC(=O)O)C(=O)O)C(=O)N[C@@H](CCCCN)C(=O)N[C@H](C(=O)N[C@@H](CC(C)C)C(=O)N[C@@H](CC(C)C)C(=O)N[C@@H](CCC(=O)O)C(=O)N[C@@H](CCC(N)=O)C(=O)N[C@@H](CCC(=O)O)C(=O)N[C@@H](CCCCN)C(=O)N[C@@H](CCC(N)=O)C(=O)N[C@@H](CCCCN)C(=O)N[C@@H](CCC(=O)O)C(=O)N[C@@H](CCC(N)=O)C(=O)N[C@@H](CCCNC(=N)N)C(=O)N[C@@H](CCC(=O)O)C(=O)N[C@@H](CCC(N)=O)C(=O)N[C@@H](C)C(=O)N[C@@H](CCC(=O)O)C(=O)N[C@H](C(=O)N[C@@H](CC(N)=O)C(=O)NC(C)(C)C(=O)N[C@@H](CCC(N)=O)C(=O)N[C@H](C(=O)N[C@@H](CC(C)C)C(=O)N[C@@H](C)C(=O)N[C@@H](CCC(N)=O)C(=O)N[C@H](C(N)=O)C(C)C)[C@@H](C)CC)[C@@H](C)O)[C@@H](C)CC)[C@@H](C)CC)C(C)C)C(C)C) [SEQ ID NO 213]	0.22	27	
[NMeI]VLSLD[dV]PIKLK([γGlu-C20 diacid])KILLEQEKQKAQREQAETN[Aib]QILAQV-NH2 (N-terminus assumed; SMILES CC[C@H](C)[C@H](NC)C(=O)N[C@H](C(=O)N[C@@H](CC(C)C)C(=O)N[C@@H](CO)C(=O)N[C@@H](CC(C)C)C(=O)N[C@@H](CC(=O)O)C(=O)N[C@@H](C(=O)N1CCC[C@H]1C(=O)N[C@H](C(=O)N[C@@H](CCCCN)C(=O)N[C@@H](CC(C)C)C(=O)N[C@@H](CCCCNC(=O)CC[C@H](NC(=O)CCCCCCCCCCCCCCCCCCC(=O)O)C(=O)O)C(=O)N[C@@H](CCCCN)C(=O)N[C@H](C(=O)N[C@@H](CC(C)C)C(=O)N[C@@H](CC(C)C)C(=O)N[C@@H](CCC(=O)O)C(=O)N[C@@H](CCC(N)=O)C(=O)N[C@@H](CCC(=O)O)C(=O)N[C@@H](CCCCN)C(=O)N[C@@H](CCC(N)=O)C(=O)N[C@@H](CCCCN)C(=O)N[C@@H](C)C(=O)N[C@@H](CCC(N)=O)C(=O)N[C@@H](CCCNC(=N)N)C(=O)N[C@@H](CCC(=O)O)C(=O)N[C@@H](CCC(N)=O)C(=O)N[C@@H](C)C(=O)N[C@@H](CCC(=O)O)C(=O)N[C@H](C(=O)N[C@@H](CC(N)=O)C(=O)NC(C)(C)C(=O)N[C@@H](CCC(N)=O)C(=O)N[C@H](C(=O)N[C@@H](CC(C)C)C(=O)N[C@@H](C)C(=O)N[C@@H](CCC(N)=O)C(=O)N[C@H](C(N)=O)C(C)C)[C@@H](C)CC)[C@@H](C)O)[C@@H](C)CC)[C@@H](C)CC)C(C)C)C(C)C) [SEQ ID NO 217]	0.09	33	
[NMeI]VLSLD[dV]PIKLK([γGlu-C20 diacid])KILLEQEKQKKQREQAETN[Aib]QILAQV-NH2 (N-terminus assumed; SMILES CC[C@H](C)[C@H](NC)C(=O)N[C@H](C(=O)N[C@@H](CC(C)C)C(=O)N[C@@H](CO)C(=O)N[C@@H](CC(C)C)C(=O)N[C@@H](CC(=O)O)C(=O)N[C@@H](C(=O)N1CCC[C@H]1C(=O)N[C@H](C(=O)N[C@@H](CCCCN)C(=O)N[C@@H](CC(C)C)C(=O)N[C@@H](CCCCNC(=O)CC[C@H](NC(=O)CCCCCCCCCCCCCCCCCCC(=O)O)C(=O)O)C(=O)N[C@@H](CCCCN)C(=O)N[C@H](C(=O)N[C@@H](CC(C)C)C(=O)N[C@@H](CC(C)C)C(=O)N[C@@H](CCC(=O)O)C(=O)N[C@@H](CCC(N)=O)C(=O)N[C@@H](CCC(=O)O)C(=O)N[C@@H](CCCCN)C(=O)N[C@@H](CCC(N)=O)C(=O)N[C@@H](CCCCN)C(=O)N[C@@H](CCCCN)C(=O)N[C@@H](CCC(N)=O)C(=O)N[C@@H](CCCNC(=N)N)C(=O)N[C@@H](CCC(=O)O)C(=O)N[C@@H](CCC(N)=O)C(=O)N[C@@H](C)C(=O)N[C@@H](CCC(=O)O)C(=O)N[C@H](C(=O)N[C@@H](CC(N)=O)C(=O)NC(C)(C)C(=O)N[C@@H](CCC(N)=O)C(=O)N[C@H](C(=O)N[C@@H](CC(C)C)C(=O)N[C@@H](C)C(=O)N[C@@H](CCC(N)=O)C(=O)N[C@H](C(N)=O)C(C)C)[C@@H](C)CC)[C@@H](C)O)[C@@H](C)CC)[C@@H](C)CC)C(C)C)C(C)C) [SEQ ID NO 214]	0.12	34	
IVLSLD[dV]PIKLK([γGlu-C16 diacid])QILLKQERQKKQREQAEKN[Aib]QILEQV-NH2 [SEQ ID NO 10]	0.17	26	> 250
